Substitutions are numbered along the chain they refer to. Numbers in names are those of the source. Blank lines part the entries; values can stand above or below the molecule they belong to.
Assays:
[1] = target: T1, K239C-NBD-ZPI (Homo sapiens, UniProt Q9UK55, C190A/C285S/K260C); test: Fluorescence emission spectra of K239C-NBD-ZPI with PZ and heparin; type: binding; settings: saturating PZ added to NBD-labeled ZPI
T1 construct: made in house; host or cells: Escherichia coli
T1 sequence (Q9UK55 22-444 C190A/K260C/C285S): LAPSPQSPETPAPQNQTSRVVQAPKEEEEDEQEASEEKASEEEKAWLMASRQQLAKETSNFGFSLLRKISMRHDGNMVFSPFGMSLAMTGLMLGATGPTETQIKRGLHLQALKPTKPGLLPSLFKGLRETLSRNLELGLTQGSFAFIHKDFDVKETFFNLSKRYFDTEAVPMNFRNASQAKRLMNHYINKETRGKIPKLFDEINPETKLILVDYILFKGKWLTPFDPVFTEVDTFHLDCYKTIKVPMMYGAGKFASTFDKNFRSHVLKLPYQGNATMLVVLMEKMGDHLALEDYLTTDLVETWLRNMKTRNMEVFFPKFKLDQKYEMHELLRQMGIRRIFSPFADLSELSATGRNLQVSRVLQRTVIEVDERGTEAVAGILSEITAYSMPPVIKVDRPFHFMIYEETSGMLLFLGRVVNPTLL
Experimental: Fluorescence emission spectra of NBD-ZPI (50–100 nM) were measured in the absence or the presence of PZ and heparin in 20 mM Tris buffer (pH 7.4), 0.2 M NaCl, 0.1% PEG 8000, 1 mg/ml bovine serum albumin (BSA), and 2.5 mM CaCl2 with an SLM 8000 spectrofluorometer with excitation at 480 nm over the emission range of 500 to 600 nm. Intrinsic protein fluorescence of WT and mutant ZPIs (200 nM to 1 μM) was measured in the same buffer without BSA, with excitation at 280 nm over the emission range of 300 to 400 nm. Emission was monitored in 5-nm steps with 5 to 10 s of integrations per step. Spectra were obtained in triplicate and averaged. Buffer, buffer plus PZ, or buffer plus heparin background spectra were subtracted, and dilution corrections were made for added PZ or heparin (<10%).

[2] = target: T2, NBD-ZPI–PZ interactions (Homo sapiens, UniProt Q9UK55, C190A/C285S/K260C); test: Titrations of NBD-ZPI with PZ in absence and presence of fixed levels of heparin; type: binding; settings: no heparin; 50 nM NBD-ZPI, 0.2 M NaCl buffer; read-out: ZPI–PZ KD,PZapp
T2 construct: made in house; host or cells: Escherichia coli
T2 sequence (Q9UK55 22-444 C190A/K260C/C285S): T1 sequence (Q9UK55 22-444 C190A/K260C/C285S)
Experimental: The effect of heparin on PZ binding to ZPI was measured by titrations of 50 nM NBD-ZPI with PZ in the absence and presence of different fixed levels of heparins of various lengths in the higher ionic strength buffer used for emission spectra. Titrations were monitored from the enhancement of NBD-ZPI fluorescence that signals PZ binding. These titrations were fit by the quadratic binding equation, ΔFobs/F0=ΔFmax/F0×[ZPI]0+[PZ]0+KD,PZapp−([ZPI]0+[PZ]0+KD,PZapp)^2−4×[ZPI]0×[PZ]0/2×[ZPI]0 where ΔFobs/Fo and ΔFmax/Fo are the observed and maximal fluorescence changes after addition of PZ expressed relative to the initial free NBD-ZPI fluorescence, respectively, and KD,PZapp = KD,PZ × (1 + [H]o/KD,H) is the apparent dissociation constant for the ZPI–PZ interaction in the absence or presence of heparin. The fitted parameters were KD,PZapp and ΔFmax/Fo.

[3] = target: T3, FXa (Homo sapiens, UniProt P00742); test: Unaccelerated ZPI–FXa reactions: kinetics and stoichiometry of inhibition; type: biochemical; settings: for ka,app: absence of PZ, 2.5 mM CaCl2, pH 7.4, 25 °C
T3 construct: purchased Enzyme Research Laboratories
T3 sequence (P00742 235-488 limits assumed): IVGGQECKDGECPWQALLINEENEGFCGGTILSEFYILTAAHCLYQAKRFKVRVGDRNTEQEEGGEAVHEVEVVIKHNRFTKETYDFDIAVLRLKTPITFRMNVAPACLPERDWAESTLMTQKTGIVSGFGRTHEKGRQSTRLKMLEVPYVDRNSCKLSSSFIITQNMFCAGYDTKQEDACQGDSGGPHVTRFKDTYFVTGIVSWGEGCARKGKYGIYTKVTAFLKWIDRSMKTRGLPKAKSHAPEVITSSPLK
T3 sequence (P00742 41-179 limits assumed): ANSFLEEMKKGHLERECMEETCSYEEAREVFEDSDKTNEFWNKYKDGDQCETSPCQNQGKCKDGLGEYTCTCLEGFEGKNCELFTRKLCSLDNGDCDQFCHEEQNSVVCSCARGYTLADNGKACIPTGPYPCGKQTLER
In short: (§1)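 Human FXa (∼0.5 nM) with ZPI 10–900 nM, ± optimal H50, pseudo-first-order; PZ-accelerated runs used PZ equimolar with ZPI, 25 μM lipid, 5 mM CaCl2, ZPI 10–40 nM. Residual activity via substrate-quench initial rates; ka,app from kobs vs [ZPI] slope, kd fixed at 10^−4 s^−1. SI from residual activity vs inhibitor:protease ratio (FXa 50–100 nM, 25 °C), dissociation-corrected.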

[4] = target: T3, FXa; test: PZ-accelerated ZPI–FXa reactions: kinetics and stoichiometry of inhibition; type: biochemical; settings: for SI / ka,app × SI / ka,app × SI relative to WT: PZ-accelerated; for ka,app: equimolar PZ, 25 μM phospholipid, 5 mM CaCl2, pH 7.4, 25 °C; for PZ enhancement: ratio of PZ-accelerated to unaccelerated ka,app × SI
In short: as §1

[5] = target: T3, FXa; test: H50 heparin-accelerated ZPI–FXa reactions: kinetics and stoichiometry of inhibition; type: biochemical; settings: for SI / ka,app × SI / ka,app × SI relative to WT: 1 μM H50; for ka,app: 1 μM H50, 2.5 mM CaCl2, pH 7.4, 25 °C; for H50 rate enhancement: ratio of heparin-accelerated to unaccelerated ka,app × SI
In short: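 Pseudo-first-order inhibition of ~0.5 nM FXa by ZPI (70 nM for H50 titration 10^−9–10^−4 M; 10–900 nM for ka,app) at 25 °C, pH 7.4 Tris with 2.5 mM CaCl2; residual activity by fluorogenic substrate, ka,app from kobs vs [ZPI] with kd fixed at 10^−4 s^−1. SI from residual activity vs ZPI:FXa ratio (50–100 nM FXa, ±1 μM H50), dissociation-corrected.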

enhancement in NBD fluorescence [1]: ~300%
Kd [2]: 9 ± 1.2 nM
Molecule: PZ: human plasma protein Z, cofactor of ZPI, from Enzyme Research Laboratories

SI [3]: 3.4 ± 0.4 moles ZPI/mole FXa
ka,app × SI [3]: 9.4 ± 1.6 × 10^3 M^−1 s^−1
ka,app × SI relative to WT [3]: (0.59)
ka,app [3]: 2.8 ± 0.1 × 10^3 M^−1 s^−1
SI [4]: 7.7 ± 0.1 moles ZPI/mole FXa
ka,app × SI [4]: 8.5 ± 0.9 × 10^6 M^−1 s^−1
ka,app × SI relative to WT [4]: (0.19)
ka,app [4]: 1.1 ± 0.1 × 10^6 M^−1 s^−1
PZ enhancement [4]: 904
SI [5]: 7.8 ± 2.0 moles ZPI/mole FXa
ka,app × SI [5]: 6.6 ± 2.7 × 10^4 M^−1 s^−1
ka,app × SI relative to WT [5]: (0.06)
ka,app [5]: 8.5 ± 1.3 × 10^3 M^−1 s^−1
H50 rate enhancement [5]: 7.0 fold
B1: K104A/R105A/K113A/K116A/K125A/R128A: ZPI mutant of the six basic residues in the helix C/D site (protein, UniProt Q9UK55 22-444, looked up, variant K104A R105A K113A K116A K125A R128A)
Protein Z-dependent protease …: T1 sequence (Q9UK55 22-444 C190A/K260C/C285S) with K104A, R105A, K113A, K116A, K125A, R128A, A169C, C239K, S264C

SI [3]: 3.6 ± 0.3 moles ZPI/mole FXa
ka,app × SI [3]: 2.6 ± 0.2 × 10^4 M^−1 s^−1
ka,app × SI relative to WT [3]: (1.6)
ka,app [3]: 7.3 ± 0.1 × 10^3 M^−1 s^−1
SI [4]: 2.2 ± 0.1 moles ZPI/mole FXa
ka,app × SI [4]: 1.8 ± 0.3 × 10^7 M^−1 s^−1
ka,app × SI relative to WT [4]: (0.41)
ka,app [4]: 8.4 ± 1.2 × 10^6 M^−1 s^−1
PZ enhancement [4]: 692
SI [5]: 4.6 ± 0.1 moles ZPI/mole FXa
ka,app × SI [5]: 3.9 ± 0.2 × 10^6 M^−1 s^−1
ka,app × SI relative to WT [5]: (3.2)
ka,app [5]: 8.3 ± 0.4 × 10^5 M^−1 s^−1
H50 rate enhancement [5]: 150 fold
B2: D298K/E301R/T302K/T309K: ZPI mutant with the helix H heparin-binding site of PCI grafted onto homologous ZPI residues (protein, UniProt Q9UK55 22-444, looked up, variant D298K E301R T302K T309K)
Protein Z-dependent protease …: T1 sequence (Q9UK55 22-444 C190A/K260C/C285S) with A169C, C239K, S264C, D298K, E301R, T302K, T309K

SI [3]: 2.1 ± 0.1 moles ZPI/mole FXa
ka,app × SI [3]: 8.5 ± 1.2 × 10^3 M^−1 s^−1
ka,app × SI relative to WT [3]: (0.53)
ka,app [3]: 4.1 ± 0.4 × 10^3 M^−1 s^−1
SI [4]: 2.4 ± 0.1 moles ZPI/mole FXa
ka,app × SI [4]: 7.2 ± 0.1 x 10^6 M^−1 s^−1
ka,app × SI relative to WT [4]: (0.16)
ka,app [4]: 3.0 ± 0.2 × 10^6 M^−1 s^−1
PZ enhancement [4]: 847
SI [5]: 1.5 ± 0.1 moles ZPI/mole FXa
ka,app × SI [5]: 4.8 ± 0.7 × 10^5 M^−1 s^−1
ka,app × SI relative to WT [5]: (0.40)
ka,app [5]: 3.2 ± 0.2 × 10^5 M^−1 s^−1
H50 rate enhancement [5]: 56 fold
B3: K253A: ZPI helix H site mutant (protein, UniProt Q9UK55 22-444, looked up, variant K253A)
Protein Z-dependent protease …: T1 sequence (Q9UK55 22-444 C190A/K260C/C285S) with A169C, C239K, K253A, S264C

SI [3]: 2.7 ± 0.5 moles ZPI/mole FXa
ka,app × SI [3]: 6.4 ± 1.3 × 10^3 M^−1 s^−1
ka,app × SI relative to WT [3]: (0.40)
ka,app [3]: 2.4 ± 0.1 × 10^3 M^−1 s^−1
SI [4]: 3.1 ± 0.1 moles ZPI/mole FXa
ka,app × SI [4]: 2.1 ± 0.2 x 10^7 M^−1 s^−1
ka,app × SI relative to WT [4]: (0.48)
ka,app [4]: 6.9 ± 0.5 × 10^6 M^−1 s^−1
PZ enhancement [4]: 3359
SI [5]: 2.8 ± 0.1 moles ZPI/mole FXa
ka,app × SI [5]: 3.5 ± 0.4 × 10^5 M^−1 s^−1
ka,app × SI relative to WT [5]: (0.29)
ka,app [5]: 1.3 ± 0.1 × 10^5 M^−1 s^−1
H50 rate enhancement [5]: 55 fold
B4: R263A: ZPI helix H site mutant (protein, UniProt Q9UK55 22-444, looked up, variant R263A)
Protein Z-dependent protease …: T1 sequence (Q9UK55 22-444 C190A/K260C/C285S) with A169C, C239K, R263A, S264C
